Consider twelve substances from the supplement of paper PMC3353916.

± gives the standard deviation of the averaged measurements.

This data set deals with Sindbis virus TE/5'2J-GFP. The data set is described as follows: percent infected (GFP+ in RFP+ ISG-expressing cells); higher = more infection (less antiviral activity). As to the method: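 Confirmatory testing of 87 ISGs. Triplicate wells of BHK/HA-Zeo (control) or BHK/NZAP-Zeo (ZAP) cells were transduced with lentiviruses co-expressing a human ISG plus TagRFP, then infected 48 h later with SINV TE/5'2J-GFP (moi 5). The % GFP+ cells among RFP+ cells was measured by flow cytometry at 8 h post infection. Fluc lentivirus served as control. Three independent experiments.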

Setting [1] is: experiment: confirmatory screen 1, BHK/HA-Zeo (control).
[2] abbreviates: experiment: confirmatory screen 1, BHK/NZAP-Zeo (ZAP).
Setting [3] is: experiment: confirmatory screen 2, BHK/HA-Zeo (control).
[4] abbreviates: experiment: confirmatory screen 2, BHK/NZAP-Zeo (ZAP).
[5] abbreviates: experiment: confirmatory screen 3, BHK/HA-Zeo (control).
[6] abbreviates: experiment: confirmatory screen 3, BHK/NZAP-Zeo (ZAP).
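Further: Interferon-defective BHK-21 derivatives, ZAP line overexpressing the rat ZAP N-terminal zinc finger domain fused to Zeocin resistance, GFP scored within live singlet TagRFP+ cells.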

Turning to “MSNGYSTDENFRYLISCFRARVKMYIQVEPVLDYLTFLPAEVKEQIQRTVATSGNMQAVELLLSTLEKGVWHLGWTREFVEALRRTGSPLAARYMNPELTDLPSPSFENAHDEYLQLLNLLQPTLVDKLLVRDVLDKCMEEELLTIEDRNRIAAAENNGNESGVRELLKRIVQKENWFSAFLNVLRQTGNNELVQELTGSDCSESNAEIENLSQVDGPQVEEQLLSTTVQPNLEKEVWGMENNSSESSFADSSVVSESDTSLAEGSVSCLDESLGHNSNMGSDSGTMGSDSDEENVAARASPEPELQLRPYQMEVAQPALEGKNIIICLPTGSGKTRVAVYIAKDHLDKKKKASEPGKVIVLVNKVLLVEQLFRKEFQPFLKKWYRVIGLSGDTQLKISFPEVVKSCDIIISTAQILENSLLNLENGEDAGVQLSDFSLIIIDECHHTNKEAVYNNIMRHYLMQKLKNNRLKKENKPVIPLPQILGLTASPGVGGATKQAKAEEHILKLCANLDAFTIKTVKENLDQLKNQIQEPCKKFAIADATREDPFKEKLLEIMTRIQTYCQMSPMSDFGTQPYEQWAIQMEKKAAKEGNRKERVCAEHLRKYNEALQINDTIRMIDAYTHLETFYNEEKDKKFAVIEDDSDEGGDDEYCDGDEDEDDLKKPLKLDETDRFLMTLFFENNKMLKRLAENPEYENEKLTKLRNTIMEQYTRTEESARGIIFTKTRQSAYALSQWITENEKFAEVGVKAHHLIGAGHSSEFKPMTQNEQKEVISKFRTGKINLLIATTVAEEGLDIKECNIVIRYGLVTNEIAMVQARGRARADESTYVLVAHSGSGVIEHETVNDFREKMMYKAIHCVQNMKPEEYAHKILELQMQSIMEKKMKTKRNIAKHYKNNPSLITFLCKNCSVLACSGEDIHVIEKMHHVNMTPEFKELYIVRENKALQKKCADYQINGEIICKCGQAWGTMMVHKGLDLPCLKIRNFVVVFKNNSTKKQYKKWVELPITFPNLDYSECCLFSDED [IFIH1]”, the percent infected runs as follows: under setting [1], 70.9 ± 2.3%; under setting [2], 14.9 ± 0.81%; under setting [3], 95.18 ± 0.27%; under setting [4], 92.703 ± 0.051%; under setting [5], 85 ± 1.1%; under setting [6], 81 ± 2.6%.

On to “MALLDVCGAPRGQRPESALPVAGSGRRSDPGHYSFSMRSPELALPRGMQPTEFFQSLGGDGERNVQIEMAHGTTTLAFKFQHGVIAAVDSRASAGSYISALRVNKVIEINPYLLGTMSGCAADCQYWERLLAKECRLYYLRNGERISVSAASKLLSNMMCQYRGMGLSMGSMICGWDKKGPGLYYVDEHGTRLSGNMFSTGSGNTYAYGVMDSGYRPNLSPEEAYDLGRRAIAYATHRDSYSGGVVNMYHMKEDGWVKVESTDVSDLLHQYREANQ [PSMB8]”, for which the percent infected runs as follows: under setting [1], 94.7 ± 1.4%; under setting [2], 64.8 ± 5.2%; under setting [3], 95.27 ± 0.2%; under setting [4], 94.97 ± 0.39%; under setting [5], 94.16 ± 0.23%; under setting [6], 94.18 ± 0.46%.

On to “MRTSYLLLFTLCLLLSEMASGGNFLTGLGHRSDHYNCVSSGGQCLYSACPIFTKIQGTCYRGKAKCCK [DEFB1]”, for which the percent infected was found to be 97.13 ± 0.85% under setting [1]; 84.4 ± 1.1% under setting [2]; 95.11 ± 0.27% under setting [3]; 92.98 ± 0.91% under setting [4]; 91.66 ± 0.67% under setting [5]; 92.239 ± 0.055% under setting [6].

As for “MGAQLCFEANAKAPREALRFHAEAKGAQVRLDTRGCIAHRRTTFHDGIVFSQRPVRLGERVALRVLREESGWCGGLRVGFTRLDPACVSVPSLPPFLCPDLEEQSPTWAAVLPEGCALTGDLVRFWVDRRGCLFAKVNAGCRLLLREGVPVGAPLWAVMDVYGTTKAIELLDPTASRLPTPMPWDLSNKAVPEPKATPGEECAICFYHAANTRLVPCGHTYFCRYCAWRVFSDTAKCPVCRWQIEAVAPAQGPPALRVEEGS [LINCR]”, the percent infected amounted to 97.12 ± 0.12% under setting [1]; 85 ± 1.6% under setting [2]; 94.5 ± 0.3% under setting [3]; 94.39 ± 0.54% under setting [4]; 91.97 ± 0.65% under setting [5]; 93.27 ± 0.19% under setting [6].

With “MIAAQAKLVYQLNKYYTERCQARKAAIAKTIREVCKVVSDVLKEVEVQEPRFISSLSEIDARYEGLEVISPTEFEVVLYLNQMGVFNFVDDGSLPGCAVLKLSDGRKRSMSLWVEFITASGYLSARKIRSRFQTLVAQAVDKCSYRDVVKMIADTSEVKLRIRERYVVQITPAFKCTGIWPRSAAQWPMPHIPWPGPNRVAEVKAEGFNLLSKECYSLTGKQSSAESDAWVLQFGEAENRLLMGGCRNKCLSVLKTLRDRHLELPGQPLNNYHMKTLLLYECEKHPRETDWDESCLGDRLNGILLQLISCLQCRRCPHYFLPNLDLFQGKPHSALESAAKQTWRLAREILTNPKSLDKL [MAB21L2]”, the percent infected was determined as 77.4 ± 7.3% under setting [1]; 48.7 ± 1.9% under setting [2]; 93.37 ± 0.82% under setting [3]; 93.8 ± 0.28% under setting [4]; 85.5 ± 3.3% under setting [5]; 86.9 ± 0.91% under setting [6].

“MDFKIEHTWDGFPVKHEPVFIRLNPGDRGVMMDISAPFFRDPPAPLGEPGKPFNELWDYEVVEAFFLNDITEQYLEVELCPHGQHLVLLLSGRRNVWKQELPLSFRMSRGETKWEGKAYLPWSYFPPNVTKFNSFAIHGSKDKRSYEALYPVPQHELQQGQKPDFHCLEYFKSFNFNTLLGEEWKQPESDLWLIEKCDI [C4orf33]”: the percent infected was 96.1 ± 1.3% under setting [1]; 85.8 ± 1.1% under setting [2]; 96.38 ± 0.37% under setting [3]; 94.84 ± 0.39% under setting [4]; 93.81 ± 0.1% under setting [5]; 93.56 ± 0.3% under setting [6].

Substance “MTLNNVTMRQGTVGMQPQQQRWSIPADGRHLMVQKEPHQYSHRNRHSATPEDHCRRSWSSDSTDSVISSESGNTYYRVVLIGEQGVGKSTLANIFAGVHDSMDSDCEVLGEDTYERTLMVDGESATIILLDMWENKGENEWLHDHCMQVGDAYLIVYSITDRASFEKASELRIQLRRARQTEDIPIILVGNKSDLVRCREVSVSEGRACAVVFDCKFIETSAAVQHNVKELFEGIVRQVRLRRDSKEKNERRLAYQKRKESMPRKARRFWGKIVAKNNKNMAFKLKSKSCHDLSVL [GEM]” came in with a percent infected under setting [1] of 91.5 ± 3.5%; a percent infected under setting [2] of 65 ± 4%; a percent infected under setting [3] of 94.19 ± 0.65%; a percent infected under setting [4] of 94.64 ± 0.36%; a percent infected under setting [5] of 94.39 ± 0.59%; a percent infected under setting [6] of 93.55 ± 0.12%.

As to “MTLRCLEPSGNGGEGTRSQWGTAGSAEEPSPQAARLAKALRELGQTGWYWGSMTVNEAKEKLKEAPEGTFLIRDSSHSDYLLTISVKTSAGPTNLRIEYQDGKFRLDSIICVKSKLKQFDSVVHLIDYYVQMCKDKRTGPEAPRNGTVHLYLTKPLYTSAPSLQHLCRLTINKCTGAIWGLPLPTRLKDYLEEYKFQV [SOCS2]”, the percent infected reads like this: under setting [1], 95.84 ± 0.81%; under setting [2], 76.8 ± 4.2%; under setting [3], 95.47 ± 0.42%; under setting [4], 94.44 ± 0.35%; under setting [5], 92.29 ± 0.39%; under setting [6], 92.23 ± 0.73%.

Consider “MGERTLHAAVPTPGYPESESIMMAPICLVENQEEQLTVNSKALEILDKISQPVVVVAIVGLYRTGKSYLMNRLAGKRNGFPLGSTVQSETKGIWMWCVPHLSKPNHTLVLLDTEGLGDVEKSNPKNDSWIFALAVLLSSSFVYNSVSTINHQALEQLHYVTELAELIRAKSCPRPDEAEDSSEFASFFPDFIWTVRDFTLELKLDGNPITEDEYLENALKLIPGKNPKIQNSNMPRECIRHFFRKRKCFVFDRPTNDKQYLNHMDEVPEENLERHFLMQSDNFCSYIFTHAKTKTLREGIIVTGKRLGTLVVTYVDAINSGAVPCLENAVTALAQLENPAAVQRAADHYSQQMAQQLRLPTDTLQELLDVHAACEREAIAVFMEHSFKDENHEFQKKLVDTIEKKKGDFVLQNEEASAKYCQAELKRLSEHLTESILRGIFSVPGGHNLYLEEKKQVEWDYKLVPRKGVKANEVLQNFLQSQVVVEESILQSDKALTAGEKAIAAERAMKEAAEKEQELLREKQKEQQQMMEAQERSFQEYMAQMEKKLEEERENLLREHERLLKHKLKVQEEMLKEEFQKKSEQLNKEINQLKEKIESTKNEQLRLLKILDMASNIMIVTLPGASKLLGVGTKYLGSRI [GBP4]”, for which the percent infected reads like this: under setting [1], 95 ± 2.1%; under setting [2], 63 ± 6%; under setting [3], 95.8 ± 0.54%; under setting [4], 95.49 ± 0.44%; under setting [5], 94.22 ± 0.7%; under setting [6], 94.93 ± 0.31%.

Consider UBE2L6, for which the percent infected is 95.97 ± 0.92% under setting [1]; 78.8 ± 2.3% under setting [2]; 96.37 ± 0.3% under setting [3]; 95.27 ± 0.14% under setting [4]; 94.34 ± 0.69% under setting [5]; 93.02 ± 0.28% under setting [6].

For the substance “MPITRMRMRPWLEMQINSNQIPGLIWINKEEMIFQIPWKHAAKHGWDINKDACLFRSWAIHTGRYKAGEKEPDPKTWKANFRCAMNSLPDIEEVKDQSRNKGSSAVRVYRMLPPLTKNQRKERKSKSSRDAKSKAKRKSCGDSSPDTFSDGLSSSTLPDDHSSYTVPGYMQDLEVEQALTPALSPCAVSSTLPDWHIPVEVVPDSTSDLYNFQVSPMPSTSEATTDEDEEGKLPEDIMKLLEQSEWQPTNVDGKGYLLNEPGVQPTSVYGDFSCKEEPEIDSPGGDIGLSLQRVFTDLKNMDATWLDSLLTPVRLPSIQAIPCAP [IRF1]”, the percent infected is, setting by setting: under setting [1], 67.2 ± 42%; under setting [2], 10.7 ± 6.3%; under setting [3], 61.6 ± 1.6%; under setting [4], 1.14 ± 0.73%; under setting [5], 29.2 ± 22%; under setting [6], 0.16 ± 0.079%.

On to “MAQASPPRPERVLGASSPEARPAQEALLLPTGVFQVAEKMEKRTCALCPKDVEYNVLYFAQSENIAAHENCLLYSSGLVECEDQDPLNPDRSFDVESVKKEIQRGRKLKCKFCHKRGATVGCDLKNCNKNYHFFCAKKDDAVPQSDGVRGIYKLLCQQHAQFPIIAQSAKFSGVKRKRGRKKPLSGNHVQPPETMKCNTFIRQVKEEHGRHTDATVKVPFLKKCKEAGLLNYLLEEILDKVHSIPEKLMDETTSESDYEEIGSALFDCRLFEDTFVNFQAAIEKKIHASQQRWQQLKEEIELLQDLKQTLCSFQENRDLMSSSTSISSLSY [PHF11]”, for which the percent infected reads like this: under setting [1], 76.3 ± 5.1%; under setting [2], 50.3 ± 2.9%; under setting [3], 91.99 ± 0.75%; under setting [4], 93.69 ± 0.2%; under setting [5], 89.11 ± 0.58%; under setting [6], 89.89 ± 0.28%.
